Reference: US20220098307A1 (WUHAN YZY BIOPHARMA, published 2022)
Positions count from the first letter of the chain named.

B1: BCMA-M2-WT (bispecific antibody, human IgG1, kappa)
chain: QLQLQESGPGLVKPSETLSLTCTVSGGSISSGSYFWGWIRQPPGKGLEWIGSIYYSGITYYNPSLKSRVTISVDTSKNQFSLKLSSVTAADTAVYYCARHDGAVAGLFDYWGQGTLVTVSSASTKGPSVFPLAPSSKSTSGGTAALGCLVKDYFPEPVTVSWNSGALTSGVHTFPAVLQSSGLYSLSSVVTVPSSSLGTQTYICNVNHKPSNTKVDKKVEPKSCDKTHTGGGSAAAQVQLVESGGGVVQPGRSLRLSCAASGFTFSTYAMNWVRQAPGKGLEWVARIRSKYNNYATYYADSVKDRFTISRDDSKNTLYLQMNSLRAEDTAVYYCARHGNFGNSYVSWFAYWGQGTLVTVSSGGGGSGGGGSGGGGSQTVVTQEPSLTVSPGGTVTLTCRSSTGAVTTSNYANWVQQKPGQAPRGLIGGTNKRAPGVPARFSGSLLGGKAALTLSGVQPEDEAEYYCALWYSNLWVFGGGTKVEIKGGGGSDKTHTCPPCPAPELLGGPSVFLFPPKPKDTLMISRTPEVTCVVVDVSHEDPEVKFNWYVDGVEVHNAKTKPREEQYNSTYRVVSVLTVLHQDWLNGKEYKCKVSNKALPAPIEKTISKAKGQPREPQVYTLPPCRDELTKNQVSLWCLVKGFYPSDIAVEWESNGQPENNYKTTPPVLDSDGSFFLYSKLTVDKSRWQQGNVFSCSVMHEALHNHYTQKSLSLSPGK
heavy: QLQLQESGPGLVKPSETLSLTCTVSGGSISSGSYFWGWIRQPPGKGLEWIGSIYYSGITYYNPSLKSRVTISVDTSKNQFSLKLSSVTAADTAVYYCARHDGAVAGLFDYWGQGTLVTVSSASTKGPSVFPLAPSSKSTSGGTAALGCLVKDYFPEPVTVSWNSGALTSGVHTFPAVLQSSGLYSLSSVVTVPSSSLGTQTYICNVNHKPSNTKVDKKVEPKSCDKTHTCPPCPAPELLGGPSVFLFPPKPKDTLMISRTPEVTCVVVDVSHEDPEVKFNWYVDGVEVHNAKTKPREEQYNSTYRVVSVLTVLHQDWLNGKEYKCKVSNKALPAPIEKTISKAKGQPREPQVCTLPPSRDELTKNQVSLSCAVKGFYPSDIAVEWESNGQPENNYKTTPPVLDSDGSFFLVSKLTVDKSRWQQGNVFSCSVMHEALHNRFTQKSLSLSPGK
light: SYVLTQPPSVSVAPGQTARITCGGNNIGSKSVHWYQQPPGQAPVVVVYDDSDRPSGIPERFSGNSNGNTATLTISRVEAGDEAVYYCQVWDSSSDHVVFGGGTKLTVLRTVAAPSVFIFPPSDEQLKSGTASVVCLLNNFYPREAKVQWKVDNALQSGNSQESVTEQDSKDSTYSLSSTLTLSKADYEKHKVYACEVTHQGLSSPVTKSFNRGEC
notes: structure 2 (fusion peptide 2, heavy, two light chains); BCMA x CD3; CH2 WT
B2: BCMA-M2-G2 (bispecific antibody, human IgG1, kappa)
chain: QLQLQESGPGLVKPSETLSLTCTVSGGSISSGSYFWGWIRQPPGKGLEWIGSIYYSGITYYNPSLKSRVTISVDTSKNQFSLKLSSVTAADTAVYYCARHDGAVAGLFDYWGQGTLVTVSSASTKGPSVFPLAPSSKSTSGGTAALGCLVKDYFPEPVTVSWNSGALTSGVHTFPAVLQSSGLYSLSSVVTVPSSSLGTQTYICNVNHKPSNTKVDKKVEPKSCDKTHTGGGSAAAQVQLVESGGGVVQPGRSLRLSCAASGFTFSTYAMNWVRQAPGKGLEWVARIRSKYNNYATYYADSVKDRFTISRDDSKNTLYLQMNSLRAEDTAVYYCARHGNFGNSYVSWFAYWGQGTLVTVSSGGGGSGGGGSGGGGSQTVVTQEPSLTVSPGGTVTLTCRSSTGAVTTSNYANWVQQKPGQAPRGLIGGTNKRAPGVPARFSGSLLGGKAALTLSGVQPEDEAEYYCALWYSNLWVFGGGTKVEIKGGGGSDKTHTCPPCPAPPVAGPSVFLFPPKPKDTLMISRTPEVTCVVVDVSHEDPEVQFNWYVDGVEVHNAKTKPREEQFNSTFRVVSVLTVVHQDWLNGKEYKCKVSNKGLPAPIEKTISKTKGQPREPQVYTLPPCRDELTKNQVSLWCLVKGFYPSDIAVEWESNGQPENNYKTTPPVLDSDGSFFLYSKLTVDKSRWQQGNVFSCSVMHEALHNHYTQKSLSLSPGK
heavy: QLQLQESGPGLVKPSETLSLTCTVSGGSISSGSYFWGWIRQPPGKGLEWIGSIYYSGITYYNPSLKSRVTISVDTSKNQFSLKLSSVTAADTAVYYCARHDGAVAGLFDYWGQGTLVTVSSASTKGPSVFPLAPSSKSTSGGTAALGCLVKDYFPEPVTVSWNSGALTSGVHTFPAVLQSSGLYSLSSVVTVPSSSLGTQTYICNVNHKPSNTKVDKKVEPKSCDKTHTCPPCPAPPVAGPSVFLFPPKPKDTLMISRTPEVTCVVVDVSHEDPEVQFNWYVDGVEVHNAKTKPREEQFNSTFRVVSVLTVVHQDWLNGKEYKCKVSNKGLPAPIEKTISKTKGQPREPQVCTLPPSRDELTKNQVSLSCAVKGFYPSDIAVEWESNGQPENNYKTTPPVLDSDGSFFLVSKLTVDKSRWQQGNVFSCSVMHEALHNRFTQKSLSLSPGK
light: B1 light
notes: structure 2; BCMA x CD3; CH2 G2CH2
B3: BCMA-M2-PG2 (bispecific antibody, human IgG1, kappa)
chain: B2 chain with C499P
heavy: B2 heavy with C233P
light: B1 light
notes: structure 2; BCMA x CD3; CH2 PG2CH2
B4: BCMA-M2-AG2 (bispecific antibody, human IgG1, kappa)
chain: B2 chain with C499A
heavy: B2 heavy with C233A
light: B1 light
notes: structure 2; BCMA x CD3; CH2 AG2CH2
B5: BCMA-M2-FES (bispecific antibody, human IgG1, kappa)
chain: QLQLQESGPGLVKPSETLSLTCTVSGGSISSGSYFWGWIRQPPGKGLEWIGSIYYSGITYYNPSLKSRVTISVDTSKNQFSLKLSSVTAADTAVYYCARHDGAVAGLFDYWGQGTLVTVSSASTKGPSVFPLAPSSKSTSGGTAALGCLVKDYFPEPVTVSWNSGALTSGVHTFPAVLQSSGLYSLSSVVTVPSSSLGTQTYICNVNHKPSNTKVDKKVEPKSCDKTHTGGGSAAAQVQLVESGGGVVQPGRSLRLSCAASGFTFSTYAMNWVRQAPGKGLEWVARIRSKYNNYATYYADSVKDRFTISRDDSKNTLYLQMNSLRAEDTAVYYCARHGNFGNSYVSWFAYWGQGTLVTVSSGGGGSGGGGSGGGGSQTVVTQEPSLTVSPGGTVTLTCRSSTGAVTTSNYANWVQQKPGQAPRGLIGGTNKRAPGVPARFSGSLLGGKAALTLSGVQPEDEAEYYCALWYSNLWVFGGGTKVEIKGGGGSDKTHTCPPCPAPEFEGGPSVFLFPPKPKDTLMISRTPEVTCVVVDVSHEDPEVKFNWYVDGVEVHNAKTKPREEQYNSTYRVVSVLTVLHQDWLNGKEYKCKVSNKALPASIEKTISKAKGQPREPQVYTLPPCRDELTKNQVSLWCLVKGFYPSDIAVEWESNGQPENNYKTTPPVLDSDGSFFLYSKLTVDKSRWQQGNVFSCSVMHEALHNHYTQKSLSLSPGK
heavy: B1 heavy with L238F, L239E, P335S
light: B1 light
notes: structure 2; BCMA x CD3; CH2 FES
B6: BCMA-M2-DG2 (bispecific antibody, human IgG1, kappa)
chain: B2 chain with D534A
heavy: B2 heavy with D268A
light: B1 light
notes: structure 2; BCMA x CD3; CH2 DG2CH2
B7: BCMA-M2-SG2 (bispecific antibody, human IgG1, kappa)
chain: B2 chain with C499S
heavy: B2 heavy with C233S
light: B1 light
notes: structure 2; BCMA x CD3; CH2 SG2CH2
B8: BCMA-M2-DG2D (bispecific antibody, human IgG1, kappa)
chain: B2 chain with D534A, D539A
heavy: B2 heavy with D268A, D273A
light: B1 light
notes: structure 2; BCMA x CD3; CH2 DG2DCH2
B9: BCMA-M2-GG2 (bispecific antibody, human IgG1, kappa)
chain: B2 chain with C499G
heavy: B2 heavy with C233G
light: B1 light
notes: structure 2; BCMA x CD3; CH2 GG2CH2
B10: BCMA-M2-G2D (bispecific antibody, human IgG1, kappa)
chain: B2 chain with D539A
heavy: B2 heavy with D273A
light: B1 light
notes: structure 2; BCMA x CD3; CH2 G2DCH2

Tests used:
Monkey CD3 = biological target: T1, Monkey CD3 (monkey); experiment: flow cytometry, monkey T cells
T1 construct: whole, on cells; also called CD3 of monkey CD3 positive T cells

Human BCMA = biological target: T2, Human BCMA (human, UniProt Q02223 1-54); experiment: flow cytometry, human tumor cells (BCMA+)
T2 sequence: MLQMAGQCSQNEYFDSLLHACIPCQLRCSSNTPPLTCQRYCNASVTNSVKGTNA
Description: 1) Cell preparation: T cells isolated from CD3-positive human whole blood were used for a CD3 end affinity detection of multifunctional antibody molecule; positive tumor cells of corresponding antigen were used for detecting affinity of tumor antigen; for example, CD38-positive MM. 1S cells (purchased from the Cell Resource Center of Shanghai Institutes for Biological Sciences, Chinese Academy of Sciences) or RPMI 8226 cells (purchased from the Cell Resource Center of Shanghai Institutes for Biological Sciences, Chinese Academy of Sciences) were used for CD38 antigen detection, and PD-L1 positive H358 cells (purchased from the Cell Resource Center of Shanghai Institutes for Biological Sciences, Chinese Academy of Sciences) were used for PD-L1 antigen detection, and so on. The cells were resuspended with 1% FBS-PBS, adjusted to a density of 4×10⁶/ml, and 50 μl of cells were taken from each well, and then plated at 2×10⁵ per well. Cell plating was operated on ice
2) Addition of the antibody: according to the experimental design, the antibody was diluted gradually, and dilution of antibody was operated on ice. For example, the initial concentration of antibody for dilution was 3000 nM, and the antibody was diluted by 3 times with 11 concentration gradients. The diluted antibody was added to a cell well at 50 μl per well, mixed well, and shaked and incubated at 4° C. 1100 rpm/min for 2 h; after washing, the cells were resuspend in 1% FBS-PBS, and a diluted secondary antibody PE anti-human IgG FC (Biolegend, 409304) was added with a final concentration of 8 ug/ml and a volume of 50 μl/well. At the same time, a well only added with cells and secondary antibody was set as a control, the components were mixed well, and incubated under shaking at 1100 rpm/min at 4° C. for 1 h;
5) Data analysis: the data was analyzed by a flow analysis software FlowJo 7.6 thereby obtaining an average fluorescence intensity of the specific antibody concentration, plotted by a Graphpad Prism 5 with the antibody concentration (nM) as an abscissa and the average fluorescence intensity as an ordinate; the EC50 value was calculated by the method of One site—Specific binding, and the EC50 value indicated the cell affinity of the antibody to the corresponding target antigen.

Human CD3ε = biological target: T3, Human CD3ε (human, UniProt P07766 23-126); experiment: flow cytometry, human T cells
T3 construct: CD3 on T cells isolated from human whole blood
Summary of the method: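 First, cells were plated on ice at 2×10⁵ per well; second, antibody dilutions (top 3000 nM, 3-fold steps) were added for 2 h at 4° C; third, after washing, PE anti-human IgG Fc (final 8 ug/ml) was added for 1 h at 4° C. EC50 was then fitted from MFI versus concentration.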

Row | Binder | EC50 (Monkey CD3) | EC50 (Human BCMA) | EC50 (Human CD3ε)
1 | B1 | 676 nM | 20.3 nM | 588 nM
2 | B2 | 591 nM | 19.1 nM | 515 nM
3 | B3 | 716 nM | 24 nM | 599 nM
4 | B4 | 668 nM | 23.8 nM | 613 nM
5 | B5 | 630 nM | 15.3 nM | 532 nM
6 | B6 | 501 nM | 17.4 nM | 550 nM
7 | B7 | 461 nM | 17 nM | 400 nM
8 | B8 | 641 nM | 18.8 nM | 534 nM
9 | B9 | 636 nM | 23.6 nM | 448 nM
10 | B10 | 510 nM | 19.2 nM | 351 nM
